Broadly, the Km is the substrate concentration at which the rate is half of its maximum.

The text below walks through data of patent US8609357B2, “Methods for detecting LP-PLA2 activity and inhibition of LP-PLA2 activity” (Glaxo Group Limited, priority 2004, dated 2013).

The nature of series [1]: Plasma level of inhibitor in clinical studies (pharmacokinetics). The note with it: human subjects, administered in vivo.
Another series has as its target T1, Lp-PLA2 (Homo sapiens, UniProt Q13093).
T1 construct: Unless otherwise indicated all plasma samples were collected from human and are human plasma; from tissue; host or cells: human blood plasma (EDTA)
T1 sequence (Q13093 22-441): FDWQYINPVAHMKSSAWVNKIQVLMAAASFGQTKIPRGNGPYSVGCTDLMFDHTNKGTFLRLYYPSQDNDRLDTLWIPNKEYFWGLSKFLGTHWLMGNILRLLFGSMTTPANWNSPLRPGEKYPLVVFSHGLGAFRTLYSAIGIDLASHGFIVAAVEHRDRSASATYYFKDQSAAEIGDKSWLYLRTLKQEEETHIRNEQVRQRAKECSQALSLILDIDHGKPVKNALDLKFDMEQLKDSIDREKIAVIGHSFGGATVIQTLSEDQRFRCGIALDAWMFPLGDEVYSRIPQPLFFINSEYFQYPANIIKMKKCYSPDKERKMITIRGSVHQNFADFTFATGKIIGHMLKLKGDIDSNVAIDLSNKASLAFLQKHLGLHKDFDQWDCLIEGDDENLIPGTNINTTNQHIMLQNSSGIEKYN
Description: Auto PAF AH assay (Azwell kit, Olympus Au640). Format: biochemical. As to the method:
The Auto PAF AH assay kit, manufactured by Azwell (Osaka, Japan), is commercially available in the United States through Karlan Research Products Corporation (Santa Rosa, Calif.).
Azwell Auto PAF-AH Assay Kit:
Prepare the following reagents: • R1: Use this buffer solution as supplied in Azwell Auto PAF AH assay kit. Store at 4° C. Protect from light. • R2: Prepare the R2 working solution by mixing R2A and R2B (supplied in Azwell Auto PAF AH assay kit) in the proportion of 19:1. Store at 4° C. Protect from light. • 3. […] Briefly centrifuge to spin down fibrin clots/particles in the plasma. • 4. Place Sarstedt tubes containing plasma samples onto sample tubes that fit the instrument. Run plasma samples through the Au640 analyzer. After choosing the PAF AH assay program, the analytical procedure described below is performed automatically: • Test sample (2 μL)+R1 (240 μL), 37° C., 5 minutes [0-5 minutes] • Add R2 (80 μL), 37° C., 5 minutes [5-10 minutes] • Measure the absorbance at 410 nm and 480 nm [6-8 minutes] • Calculate PAF AH activity (IU/L) • 5.

Series [2] has as its target T2, recombinant human Lp-PLA2 protein (hrLp-PLA2) (Homo sapiens, UniProt Q13093).
T2 construct: made in house
T2 sequence (Q13093 22-441): T1 sequence (Q13093 22-441)
Description: Modified colorimetric assay of recombinant human Lp-PLA2 protein (dynamic range). Type of series: biochemical. The conditions noted are these: for Activity (assay dynamic range): hrLp-PLA2 14.6-3750 ng/ml, […] substrate/45 μL. How it is done:
(§1) Assay dynamic range was defined by using both recombinant human Lp-PLA2 protein (hrLp-PLA2) generated in-house and Lp-PLA2 protein purified from human plasma in-house.
hrLp-PLA2 was serially diluted and 25 μL of each diluted hrLp-PLA2 were assayed by a modified drug-sensitive colorimetric assay (data shown in Table 10). […]. (see Table 10).
[…]. Therefore, such conditions with lower substrate concentration and higher sample volume could be used when higher measurable in vivo inhibition is desired while the range of Lp-PLA2 activity for test samples is limited or could be compromised. […]. Earlier and shorter reaction time could be considered to use in activity calculation to improve assay dynamic range when such conditions are used.

For series [3], the target named is T3, hLp-PLA2 purified from plasma (Homo sapiens, UniProt Q13093).
T3 construct: Lp-PLA2 protein purified from human plasma in-house; from tissue; host or cells: human plasma, purified in-house
T3 sequence (Q13093 22-441): T1 sequence (Q13093 22-441)
Description: Modified colorimetric assay of Lp-PLA2 purified from human plasma (dynamic range). Type of series: biochemical. As to the method:
as §1
hLp-PLA2 purified from plasma was also serially diluted and 25 pt of each dilution were assayed by a modified drug-sensitive colorimetric assay (data shown in Table 11). […] The relatively lower upper limit of the dynamic range determined by purified hLp-PLA2 may be resulted from interference factors possibly present in the purified product and/or introduced during purification process. Limited availability of such purified protein prevents further investigation.

“And” between values parts separate entries of the source, which are not always exact repeats. Identical values can stand only once.

In turn, `CCN(CC)CCN(Cc1ccc(-c2ccc(C(F)(F)F)cc2)cc1)C(=O)Cn1c(SCc2ccc(F)cc2)nc(=O)c2c1CCC2` [Formula II, 1-(N-(2-(Diethylamino)ethyl)-N-(4-(4-trifluoromethylphenyl)benzyl)-aminocarbonylmethyl)-2-(4-fluorobenzyl)thio-5,6-trimethylenepyrimidin-4-one bitartrate] came in with a peak plasma level in series [1] of 90 ng/mL.
For `COCCN1CCC(N(Cc2ccc(-c3ccc(C(F)(F)F)cc3)cc2)C(=O)Cn2c(SCc3cccc(F)c3F)cc(=O)c3ccccc32)CC1` [Formula I], on Lp-PLA2 (four subjects, 80-240 mg in vivo), the “drug inhibition by Auto PAF AH assay” value is recorded as “failed to indicate drug inhibition”. For the same molecule, the “Lp-PLA2 inhibition measured by Auto PAF AH assay” value at Lp-PLA2 (six drug-treated human subjects, 120-240 mg in vivo) is “not apparent”.
In the case of `CCCCCCCCCCCCCC(=O)OCC(COP(=O)([O-])OCC[N+](C)(C)C)OC(=O)CCC(=O)Oc1ccc([N+](=O)[O-])cc1` (stereo not shown) [substrate, reference compound], at Lp-PLA2 (plasma as the enzyme source, Auto PAF AH protocol), the Km is ~200 µM and 200 µM.

B1: hrLp-PLA2: recombinant human Lp-PLA2 protein generated in-house (protein, UniProt Q13093 22-441, looked up)
Platelet-activating factor …: T1 sequence (Q13093 22-441)
For the molecule B1, the Activity was 2.71 nmol/min/mL in series [2] (hrLp-PLA2 4.88 ng/mL, […] Substrate/45 μL); 5.13 nmol/min/mL in series [2] (hrLp-PLA2 9.77 ng/mL, […] Substrate/45 μL); 9.27 nmol/min/mL in series [2] (hrLp-PLA2 19.53 ng/mL, […] Substrate/45 μL); 17.81 nmol/min/mL in series [2] (hrLp-PLA2 39.06 ng/mL, […] Substrate/45 μL); 30.16 nmol/min/mL in series [2] (hrLp-PLA2 78.13 ng/mL, […] Substrate/45 μL); 51.62 nmol/min/mL in series [2] (hrLp-PLA2 156.25 ng/mL, […] Substrate/45 μL). For the same molecule, the Activity is 84.14 nmol/min/mL in series [2] (hrLp-PLA2 312.50 ng/mL, […] Substrate/45 μL); 109.44 nmol/min/mL in series [2] (hrLp-PLA2 625.00 ng/mL, […] Substrate/45 μL); 93.90 nmol/min/mL in series [2] (hrLp-PLA2 1250.00 ng/mL, […] Substrate/45 μL); 30.0 nmol/min/mL in series [2] (hrLp-PLA2 1650 ng/ml, 25 uL assayed); 69.7 nmol/min/mL in series [2] (hrLp-PLA2 3300 ng/ml, 25 uL assayed); 169.0 nmol/min/mL in series [2] (hrLp-PLA2 6600 ng/ml, 25 uL assayed). The Activity in series [2] (hrLp-PLA2 14666 ng/ml, 25 uL assayed) is on record as 413.7 nmol/min/mL. Besides, the results for the “Activity (assay dynamic range)” value in series [2] (reaction time used for calculation 30 sec-0) and in series [2] (reaction time used for calculation 1 min-0) were 3.4 to 210 nmol/min/mL and 3.2 to 196.5 nmol/min/mL, respectively.

B2: Purified hLp-PLA2 (protein, UniProt Q13093 22-441, looked up)
Platelet-activating factor …: T1 sequence (Q13093 22-441)
Consider B2, for which the Activity worked out at 2.47 nmol/min/mL in series [3] (Purified hLp-PLA2 6.25 ng/ml); 5.06 nmol/min/mL in series [3] (Purified hLp-PLA2 12.50 ng/ml); 25.68 nmol/min/mL in series [3] (Purified hLp-PLA2 50.00 ng/ml); 54.34 nmol/min/mL in series [3] (Purified hLp-PLA2 100.00 ng/ml); 119.34 nmol/min/mL in series [3] (Purified hLp-PLA2 200.00 ng/ml); 212.95 nmol/min/mL in series [3] (Purified hLp-PLA2 400.00 ng/ml). Besides, the results for the Activity in series [3] (Purified hLp-PLA2 600.00 ng/ml), in series [3] (Purified hLp-PLA2 800.00 ng/ml) and in series [3] (Purified hLp-PLA2 1000.00 ng/ml) were 273.60 nmol/min/mL, 324.85 nmol/min/mL and 338.51 nmol/min/mL, respectively.
